Where a chain is given by its changes, count along the chain named.

The text below walks through data of patent publication US5726291, “Amylase inhibitors” (Nisshin Flour Milling Co., Ltd., dated 1998).

First the molecules themselves.
T1: human pancreatic α-amylase (human, UniProt P04746)
T1 sequence: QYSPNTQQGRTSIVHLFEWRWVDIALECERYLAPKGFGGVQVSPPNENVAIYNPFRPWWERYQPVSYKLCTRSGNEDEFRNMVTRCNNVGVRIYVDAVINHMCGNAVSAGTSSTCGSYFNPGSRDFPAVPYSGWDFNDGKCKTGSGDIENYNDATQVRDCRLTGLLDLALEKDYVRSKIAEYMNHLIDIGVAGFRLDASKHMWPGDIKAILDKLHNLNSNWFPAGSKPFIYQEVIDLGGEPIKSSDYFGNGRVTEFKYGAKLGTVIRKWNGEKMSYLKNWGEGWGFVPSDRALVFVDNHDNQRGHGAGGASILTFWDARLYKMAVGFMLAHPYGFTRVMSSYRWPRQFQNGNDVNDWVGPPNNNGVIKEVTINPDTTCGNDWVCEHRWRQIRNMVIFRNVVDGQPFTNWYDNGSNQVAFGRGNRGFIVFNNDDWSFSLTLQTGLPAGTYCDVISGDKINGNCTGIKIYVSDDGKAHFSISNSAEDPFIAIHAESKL

B1: Protein 0.19 AI (other)
chain: SGPWMCYPGQAFQVPALPACRPLLRLQCNGSQVPEAVLRDCCQQLAHISEWCRCGALYSMLDSMYKEHGAQEGQAGTGAFPRCRREVVKLTAASITAVCRLPIVVDASGDGAYVCKDVAAYPDA
B2: Protein 0.28 AI (other)
chain: SGPWSWCNPATGYKVSALTGCRAMVKLQCVGSQVPEAVLRDCCQQLADINNEWCRCGDLSSMLRAVYQELGVREGKEVLPGCRKEVMKLTAASVPEVCKVPIPNPSGDRAGVCYGDWCAYPDV
B3: Protein (A) (other)
chain: SGPWMCYPGYAFKVPALPGCRPVLKLQCNGSQVPEAVLRDCCQQLADISEWCRCGALYSMLDSMYKEHGVQEGQAGTGAFPSCRREVVKLTAASITAVCKLPIVIDASGDGAYVCKGVAAYP
B4: Protein 0.26 AI (other)
chain: SGPWMCYPGYAFKVPALPGCRPVLKLQCNGSQVPEAVLRDCCQQLADISEWCRCGALYSMLDSMYKEHGVQEGQAGTGAFPSCRREVVKLTAASITAVCKLPIVIDASGDGAYVCKGVAAYPDA
B5: Protein 0.53 AI (other)
chain: B1 chain with A19G, R25K, H47D, C52P, A70V, Q71S, R82S

The target of this test is T1, human pancreatic α-amylase. The experiment in a line: cell-based or functional assay.
For the molecule B1, the “Amylase inhibitory activity (U/mg)” value turned out to be 20300 U/mg.

On to B2, for which the “Amylase inhibitory activity (U/mg)” value came to 840 U/mg. The same measure for B3: 20500 U/mg; for B4: 26100 U/mg; for B5: 3940 U/mg.
